One experiment has as its system HEK293T. Put plainly: Proteome labeling after transient transfection and AzY/AzF incubation, DIBO-Alexa Fluor 647 in-gel fluorescence. The format is cell-based, human. To be noted: transient transfection, 2 mM AzY or AzF. How it is done:
(§1) Cells were lysed, pre-treated with iodoacetamide (IAM) to block background thiol-yne additions (25), and treated with dibenzocyclooctyne (DIBO)-Alexa Fluor 647 dye for copper-free, strain-promoted azide-alkyne cycloaddition.
(§2) Cell transfection, click amino acid labeling, and selection of stably transfected B16-F10 cells. Unless otherwise noted, cells were transiently transfected with Lipofectamine 3000 (Invitrogen) 24 hours prior to 4-Azido-L-phenylalanine (AzF, Chem-Implex) or 3-Azido-L-tyrosine (AzY, Watanabe Chemical Industries) labeling. For initial assessment of labeling across mammalian cell lines, transfected cells were incubated with 2 mM of AzF, AzY, tyrosine, or phenylalanine for 30 hours in 12-well plates prior to lysis. To characterize enzyme selectivity and rate of substrate activation, transfected HEK293T cells were incubated with varying amounts of endogenous and non-canonical amino acids for 24 hours in 12-well plates prior to lysis. For affinity enrichment prior to shotgun mass spectrometry, transfected HEK293T cells were incubated with 125 μM of endogenous and non-canonical amino acids for 24 hours in 10 cm dishes prior to lysis. B16-F10 cells were transfected with mutant synthetases in the Piggybac vector PB513B-1 for 72 hours prior to puromycin selection at 10 μg/ml for 10 days.
(§3) Copper-free reaction of DIBO-Alexa Fluor 647 with click-labeled cell lysates for in-gel fluorescence. After washing in PBS twice, cells were lysed 1% SDS in PBS with EDTA-free protease inhibitor (Roche). […] Protein concentrations were measured with a BCA Protein Assay Kit (Pierce) to ensure equal loading across gel wells (˜23 μg). […] Colloidally stained gels were imaged in the 800-nm channel of an Odyssey CLx (LI-COR), where no bleed-through of the Alexa Fluor 647 signal was detected. Quantification of signal intensities of labeled proteomes from each gel lane were analyzed in ImageJ as before, but with slight modifications (36). […] Instead, the mean and standard deviations were calculated from biological triplicates of whole gel lanes, less the dye front.

Another experiment deals with CHO. The description is as above. Format: cell-based, hamster. To be noted: transient transfection, 2 mM AzY or AzF. On the procedure:
as §1, §2, §3

The next experiment has as its system B16-F10. Described as above. To be noted: transient transfection, 2 mM AzY or AzF. Format: cell-based, mouse. How it is done: as §1, §2, §3
The subject of a further experiment is HEK293T cells. Put plainly: Selectivity of ncAA activation over canonical amino acid, in-gel AF647 fluorescence fitted to Michaelis-Menten kinetics. Format: cell-based, human. The following applies: equimolar concentrations of the two amino acids; serum-containing media, 24 h. The source says: FIGS. 2A-2E: Identification and characterization of TyrRS and PheRS variants for bioorthogonal labeling of mammalian proteomes with AzY and AzF. FIG. 2A: A single substitution (Y43G) in the amino acid binding site of yeast tyrosyl-tRNA synthetase (ScTyrY43G) enables charging of the azido tyrosine analog AzY onto tRNA^TYr before incorporation into nascent proteins of host cells. FIG. 2B: A single substitution (T413G) in the amino binding site of human or mouse phenylalanyl-tRNA synthetase (MmPheT413G) enables charging of the azido phenylalanine analog AzF onto tRNA^Phe. FIG. 2C: In-gel fluorescence image of Alexa Fluor 647 labeling corresponding to AzY or AzF incorporation into mammalian cell proteomes. ‘WT’: no exogenous amino acid added to media. ‘CP1 switch’: an E. coli TyrRS with the human CP1 peptide engrafted. ‘Mj TyRS’: TyrRS from the species M. jannaschii, without its accompanying tRNA. FIG. 2D: High selectivity of ScTyrY43G for AzY over Tyr. In-gel Alexa Fluor 647 fluorescence and coomassie blue staining of whole gel lanes were quantified to assess the degree of proteome labeling normalized to total protein content. […]
Copper-free reaction of DIBO-Alexa Fluor 647 with click-labeled cell lysates for in-gel fluorescence. […] Protein concentrations were measured with a BCA Protein Assay Kit (Pierce) to ensure equal loading across gel wells (˜23 μg). […]

B1: HsPheT413G: human phenylalanyl-tRNA synthetase with T413G substitution; SEQ ID NO:6 (protein)
chain: MADGQVAELLLRRLEASDGGLDSAELAAELGMEHQAVVGAVKSLQALGEVIEAELRSTKHWELTAEGEEIAREGSHEARVFRSIPPEGLAQSELMRLPSGKVGFSKAMSNKWIRVDKSAADGPRVFRVVDSMEDEVQRRLQLVRGGQAEKLGEKERSELRKRKLLAEVTLKTYWVSKGSAFSTSISKQETELSPEMISSGSWRDRPFKPYNFLAHGVLPDSGHLHPLLKVRSQFRQIFLEMGFTEMPTDNFIESSFWNFDALFQPQQHPARDQHDTFFLRDPAEALQLPMDYVQRVKRTHSQGGYGSQGYKYNWKLDEARKNLLRTHTTSASARALYRLAQKKPFTPVKYFSIDRVFRNETLDATHLAEFHQIEGVVADHGLTLGHLMGVLREFFTKLGITQLRFKPAYNPYGEPSMEVFSYHQGLKKWVEVGNSGVFRPEMLLPMGLPENVSVIAWGLSLERPTMIKYGINNIRELVGHKVNLQMVYDSPLCRLDAEPRPPPTQEAA
B1: the proteome labeling entry with HEK293T, in the experiment with CHO and in the experiment with B16-F10 was “strong labeling” in each case.

B2: MmPheT413G: mouse phenylalanyl-tRNA synthetase with T413G substitution, charges AzF onto tRNA-Phe; SEQ ID NO:5 (protein)
chain: MADNPVLELLLRRLEVADGGLDSAELATQLGVEHQAVVGAVKSLQALGEVIEAELRSTKCWELTTEGEEIAREGSHEARVFRSIPLEGLVQSELMHLPSGKVGFSKAMSNKWIRVDKSAADGPRVFRVVDSIEDEVQKRLQLVQAGQAEKLAEKERNELRKRKLLTEVILKTYWVSKGKAFSTSVSKQEAELSPEMISSGSWRDRPFKPYNFSARGVLPDSGHLHPLLKVRSQFRQIFLEMGFTEMPTDNFIESSFWNFDALFQPQQHPARDQHDTFFLRDPAEALQLPMGYVQRVKRTHSQGGYGSQGYKYTWKLEEARKNLLRTHTTAASARALYQLAQKKPFTPAKYFSIDRVFRNETLDATHLAEFHQIEGVIADHGLTLGHLMGVLREFFTKLGITQLRFKPAYNPYGEPSMEVFSYHQGLKKWVEVGNSGVFRPEMLLPMGLPENVSVIAWGLSLERPTMIKYGINNIRELVGHKVNLQMVYDSPVCRLDIEPRSSKTQEAA
In the case of B2, the proteome labeling entry in the experiment with HEK293T, in the experiment with CHO and in the experiment with B16-F10 was “strong labeling” each time. Further, in the experiment on HEK293T cells, the “activation of AzF faster than Phe” value is recorded as “over 11 fold”.

B3: ScTyrY43G: yeast tyrosyl-tRNA synthetase with Y43G substitution, charges AzY onto tRNA-Tyr; SEQ ID NO:4 (protein)
chain: MSSAATVDPNEAFGLITKNLQEVLNPQIIKDVLEVQKRHLKLGWGTAPTGRPHCGYFVPMTKLADFLKAGCEVTVLLADLHAFLDNMKAPLEVVNYRAKYYELTIKAILRSINVPIEKLKFVVGSSYQLTPDYTMDIFRLSNIVSQNDAKRAGADVVKQVANPLLSGLIYPLMQALDEQFLDVDCQFGGVDQRKIFVLAEENLPSLGYKKRAHLMNPMVPGLAQGGKMSASDPNSKIDLLEEPKQVKKKINSAFCSPGNVEENGLLSFVQYVIAPIQELKFGTNHFEFFIDRPEKFGGPITYKSFEEMKLAFKEEKLSPPDLKIGVADAINELLEPIRQEFADNKEFQEASEKGYPVATPQKSKKAKKPKNKGTKYPGATKTNEIATKLEETKL
On to B3, for which the proteome labeling result in the experiment with HEK293T, with CHO and in the experiment on B16-F10 was “strong labeling” in each case. For the same molecule, the “activation of AzY faster than Tyr” value with HEK293T cells is recorded as ~250 fold.

The values are drawn from patent publication US11921118B2, “Methods for proteome labeling” (The Board of Trustees of the Leland Stanford Junior …, priority 2018, dated 2024).
